Holding throughout (settings): liposome binding signal on yeast proteome chip, Cy3-streptavidin detection
The subject of one data set is PI(3,4,5)P3 liposomes. Put plainly: Yeast proteome chip probed with PI(3,4,5)P3 liposomes.
The test system of the next data set is PI(4,5)P2 liposomes. Nature of the data set: Yeast proteome chip probed with PI(4,5)P2 liposomes.
The subject of data set [1] is phosphatidylcholine (PC) liposomes. Put plainly: Yeast proteome chip probed with PC liposomes. The method, boiled down:
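Binding of arrayed yeast proteins to sonicated PC liposomes, with or without 5% (w/w) phosphoinositide, is scored by streptavidin fluorescence on the biotinylated lipid tracer.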

The next data set concerns PI(4)P liposomes. Nature of the data set: Yeast proteome chip probed with PI(4)P liposomes.
The subject of a further data set is PI(3)P liposomes. Put plainly: Yeast proteome chip probed with PI(3)P liposomes.
In another data set the test system is PI(3,4)P2 liposomes. Put plainly: Yeast proteome chip probed with PI(3,4)P2 liposomes.

B1: YLR020C: yeast GST-HisX6 fusion protein on proteome chip (protein, UniProt Q07950 1-538, looked up)
Sterol esterase 2: MVNKVVDEVQRLVSAIILTSFMTGLFILSLWKNYVTVHFQHKNDPRDTRSSRTKIQPNDKKKKRPARHSRPLSISSTTPLDLQRDQENNIEYDRTVTSKLSMTSNASLSENGDGNANIKMETNVNQAPYAAENPFQNIALAEDTKLVPDLKYYYKEYGIDIEEFEVETDDGFIIDLWHFKSRLNDGVEEVKREPILLLHGLLQSCGAFASSGRKSLAYFLYESGFDVWLGNNRCGLNAKWNMKKLGNDHSKKWDWDMHQMVQYDLKALINYVLDSTGYAKLSLVAHSQGTTQGFMGLVNGEKLYASDFKLVDKLENFVALAPAVYPGPLLDEKAFVRLMAKGIDSPWYFGRRSFIPLMMTMRKLMVGTKIFSFLSYIMFNYLFDWNDVLWDRVLRDRNFLFSPVHISVKLMQWWLSPLPNKLSFKKGAEKIFPDKKTWFPIAKNDDDSGNNLDNNKLHLNPKRQNSEEFPHIIMFIPKQDRLVDGERLINHFINHEANAVYKIWYIDEYSHLDVLWAHDVIDRIGKPMIENLRFPNAR
modifications: GST-His6 tag
notes: yeast GST-HisX6 fusion protein on proteome chip
Regarding B1, the “PI(3, 4, 5)P3” value in the data set with PI(3,4,5)P3 liposomes was 1.24. For the same molecule, the “PI(4, 5)P2” value in the data set with PI(4,5)P2 liposomes is on record as 15.68. The molecule further had a PC in data set [1] of 7.34. For the same molecule, the “PI(4)P” value in the data set with PI(4)P liposomes is listed as −5.66. Moreover, the “PI(3)P” value with PI(3)P liposomes is reported as 3.75. In the data set on PI(3,4)P2 liposomes, the “PI(3, 4)P2” value is recorded as 2.67.

B2: APG7: yeast GST-HisX6 fusion protein on proteome chip (protein, UniProt P38862 1-630, looked up)
Ubiquitin-like …: MSSERVLSYAPAFKSFLDTSFFQELSRLKLDVLKLDSTCQPLTVNLDLHNIPKSADQVPLFLTNRSFEKHNNKRTNEVPLQGSIFNFNVLDEFKNLDKQLFLHQRALECWEDGIKDINKCVSFVIISFADLKKYRFYYWLGVPCFQRPSSTVLHVRPEPSLKGLFSKCQKWFDVNYSKWVCILDADDEIVNYDKCIIRKTKVLAIRDTSTMENVPSALTKNFLSVLQYDVPDLIDFKLLIIRQNEGSFALNATFASIDPQSSSSNPDMKVSGWERNVQGKLAPRVVDLSSLLDPLKIADQSVDLNLKLMKWRILPDLNLDIIKNTKVLLLGAGTLGCYVSRALIAWGVRKITFVDNGTVSYSNPVRQALYNFEDCGKPKAELAAASLKRIFPLMDATGVKLSIPMIGHKLVNEEAQHKDFDRLRALIKEHDIIFLLVDSRESRWLPSLLSNIENKTVINAALGFDSYLVMRHGNRDEQSSKQLGCYFCHDVVAPTDSLTDRTLDQMCTVTRPGVAMMASSLAVELMTSLLQTKYSGSETTVLGDIPHQIRGFLHNFSILKLETPAYEHCPACSPKVIEAFTDLGWEFVKKALEHPLYLEEISGLSVIKQEVERLGNDVFEWEDDESDEIA
modifications: GST-His6 tag
notes: as for B1
B2: in the data set on PI(3,4,5)P3 liposomes, the “PI(3, 4, 5)P3” value is recorded as 0.45. The “PI(4, 5)P2” value with PI(4,5)P2 liposomes is listed as 59.23. The molecule further had a PC in data set [1] of 5.87. The “PI(4)P” value in the data set on PI(4)P liposomes came to 18.29. Moreover, the “PI(3)P” value in the data set on PI(3)P liposomes is recorded as −22.50. In addition, the “PI(3, 4)P2” value in the data set on PI(3,4)P2 liposomes is −0.63.

B3: SPO1: yeast GST-HisX6 fusion protein on proteome chip (protein, UniProt P53541 18-631, looked up)
Putative meiotic …: TAPFQVQCPSSPLIREAKHELCPEETLYLKKKKIKTKNKLIQFLKSLTEAKFSSKFYKRVLKDPPKIGIAISGGGYRSMLVGTGFISQMNDYGLFEYSDYIAGLSGGSWILMDLVVQNFEVKSLLQEWDLEEDLLLGIPEFDISEEEIVTNAKKEYNDNDLKMKKRQGGSLITSSSNFYEQIEEIMNSIEEIPEDYMITKRNLNPLARLKKIFFPNNTFTGTDAKIETFKKVLDFYKSLHLKIKPKKMEGFQISFTDYWGKAIVQRLKKNFDDDPNHSFSFSKLVNSSKKFKECSVPIPIFVANCKNGLLSNVIFEFTPFEFGSWENILRLFVKLPYLGSKIVSGKAEKCINNFDDLGFITATSSSIFNNVLIFIWNLASQSSREAMKALNMVMGIFGLGKEEIFSISKDSSRLETDYAVYQPNPFYLYPEKDNVLTNKNHLYLVDGGEDGENIPLRTLVIPERELDVIFVLDSSSDIDNYPNGSKLKRIFEKLDEENVHYQFPNNVKTFTHPIVIGCNATKRTGHDSFLPIIIYHANANHGNASNTSTFKITYNQSEVSSMLPTGRGVFSNDYDLYYKNCLGCILTKRTMDRLPRKKKFSPFCLQCFKDYCYS
modifications: GST-His6 tag
notes: as for B1
In the case of B3, the “PI(3, 4, 5)P3” value with PI(3,4,5)P3 liposomes is −9.22. Further, the “PI(4, 5)P2” value with PI(4,5)P2 liposomes is 14.37. The molecule also displayed a PC in data set [1] of 5.58. In addition, the “PI(4)P” value with PI(4)P liposomes was determined as 0.44. The “PI(3)P” value in the data set with PI(3)P liposomes was −6.50. Also, the “PI(3, 4)P2” value in the data set with PI(3,4)P2 liposomes is listed as 18.99.

B4: MUB1: yeast GST-HisX6 fusion protein on proteome chip (protein, UniProt Q03162 1-620, looked up)
MYND-type zinc finger protein …: MRDSNHRSLTSNKPIVTITSTVYDRRALDINSSIPLINSLNYLTYLTSNSSKVRETVANDGALERLVSILRSCHLSLFELLDLDLENFNEHENIKDLWKEKRLALCAWKWTLTFQCLVLTGTRGTEQIRKKVVMSGVLSVLVTVLDNYLLYHKNYDFIKDQTMTFDFKGITTETMYKFMRKDENETYQQYIEFITGQDKLKLSTDKNFLNERLVAPSMTIPTDFSDIWGRFADLASNFEPDQERHDDDIDIDSEVESENFDAHKNFFSQPDINRPTISTPREFFLGRIVPKQDDVIWSLQLLAFVSKYTYMKSTLQNVELVESLSFRSMAYKIKQRISEENDLEEQERDVTVKLSSLYPYLSKNPENNSKVKALDTSKMDPFFKELEELSNRCQQEEQNEICNNHCPVLNLFERYRVPKPSDDNAYGKDKERINLRKKISDNFERRWSYDKMKKELTNIVYKNKVLTNVVNIFPLVEKYTVSAENTHDVIYWSSVIMRNSCRKNEILGVRQCANFSCGKWEDFPRQFAKCRRCKRTKYCSRKCQLKAWGYHRYWCHEVGSSHMRSTNTTTGVNTPNEPSSLNATATTAADVSNSTSTFTPNISTTVPDEISNRDENSIPE
modifications: GST-HisX6 tag
notes: as for B1
Consider B4, for which, in the data set on PI(3,4,5)P3 liposomes, the “PI(3, 4, 5)P3” value came out at 9.79. For the same molecule, the “PI(4, 5)P2” value with PI(4,5)P2 liposomes is recorded as −4.79. The molecule also came in with a PC in data set [1] of 2.64. Also, in the data set with PI(4)P liposomes, the “PI(4)P” value came out at 19.38. In addition, in the data set on PI(3)P liposomes, the “PI(3)P” value is recorded as −6.00. Also, the “PI(3, 4)P2” value in the data set with PI(3,4)P2 liposomes is listed as 9.89.

B5: YEL064C: yeast GST-HisX6 fusion protein on proteome chip (protein, UniProt P39981 1-480, looked up)
Vacuolar amino acid …: MSELGEYSKLENKELRTEFELTNFPFPGTTDNDSDDGSQGQNSLNIITPDMDDTLVNDVLRENDKKSSMRMAFMNLANSILGAGIITQPFAIKNAGILGGLLSYVALGFIVDWTLRLIVINLTLAGKRTYQGTVEHVMGKKGKLLILFTNGLFAFGGCIGYCIIIGDTIPHVLRAIFSQNDGNVHFWLRRNVIIVMVTTFISFPLSMKRNIEALSKASFLAVISMIIIVLTVVIRGPMLPYDWKGHSLKLSDFFMKATIFRSLSVISFALVCHHNTSFIFFSMRNRSVAKFTRLTHISIIISVICCALMGYSGFAVFKEKTKGNVLNSFPGTDTAINIARLCFGFNMLTTFPMEIFVLRDVVGNLLHECNLIKNYDEHTQLSGKQHVVITSSLVFITMGISLTTCNLGALFELIGATTASTMAYILPPYTNLLLTSKKKSWKERLPFYLCICFGFMIMIISSTQTIIDAVNGSDGQHCQI
modifications: GST-His6 tag
notes: as for B1
With B5, the “PI(3, 4, 5)P3” value in the data set with PI(3,4,5)P3 liposomes is reported as −0.90. The “PI(4, 5)P2” value in the data set on PI(4,5)P2 liposomes is listed as 6.53. This molecule yielded a PC in data set [1] of 5.28. For the same molecule, the “PI(4)P” value in the data set on PI(4)P liposomes is listed as −3.92. In addition, the “PI(3)P” value with PI(3)P liposomes is on record as −5.00. The “PI(3, 4)P2” value with PI(3,4)P2 liposomes is reported as −3.14.
